Source: article PMC6061855 (Nucleic Acids Research, 2018)
Changes are numbered by the printed parent chain. Names and notes keep the numbering of the source. Blank lines part the entries; values can stand above or below the molecule they belong to.

T1: DapFm (E. coli DapF with Y268A and R36A mutations) (E. coli, UniProt P0A6K1 1-274, Y268A | R36A)
T1 sequence: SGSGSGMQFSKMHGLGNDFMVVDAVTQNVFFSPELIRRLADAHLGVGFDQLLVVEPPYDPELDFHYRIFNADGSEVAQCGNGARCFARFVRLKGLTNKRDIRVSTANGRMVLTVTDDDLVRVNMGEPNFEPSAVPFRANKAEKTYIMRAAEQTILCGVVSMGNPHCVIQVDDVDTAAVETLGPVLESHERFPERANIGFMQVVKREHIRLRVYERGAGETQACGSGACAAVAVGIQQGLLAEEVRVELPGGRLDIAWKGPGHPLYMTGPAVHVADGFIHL

T2: His6-SUMO-DapF (E. coli DapF with uncleaved N-terminal hexahistidine and SUMO tags) (E. coli, UniProt P0A6K1 1-274)
T2 sequence: T1 sequence with A42R, A274Y

T3: RppH^R134A (E. coli RppH mutant), His6-SUMO-tagged (E. coli, UniProt P0A776 1-176, R134A)
T3 sequence (looked up): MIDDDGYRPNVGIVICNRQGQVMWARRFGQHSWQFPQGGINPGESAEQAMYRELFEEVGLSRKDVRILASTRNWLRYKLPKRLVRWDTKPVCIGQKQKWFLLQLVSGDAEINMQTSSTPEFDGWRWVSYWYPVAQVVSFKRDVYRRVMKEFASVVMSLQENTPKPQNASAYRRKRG

T4: His6-SUMO-tagged E. coli RppH (E. coli, UniProt P0A776 1-176)
T4 sequence (looked up): T3 sequence (looked up) with A134R

T5: RppHt;DapFm (Escherichia coli;Escherichia coli, UniProt P0A776;P0A6K1 1-158;1-274, |R36A;Y268A)
T5 sequence 1: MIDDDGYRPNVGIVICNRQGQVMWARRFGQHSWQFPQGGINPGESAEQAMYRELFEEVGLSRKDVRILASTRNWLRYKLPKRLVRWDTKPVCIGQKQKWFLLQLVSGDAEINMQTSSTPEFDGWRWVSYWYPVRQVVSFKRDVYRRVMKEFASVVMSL
T5 sequence 2: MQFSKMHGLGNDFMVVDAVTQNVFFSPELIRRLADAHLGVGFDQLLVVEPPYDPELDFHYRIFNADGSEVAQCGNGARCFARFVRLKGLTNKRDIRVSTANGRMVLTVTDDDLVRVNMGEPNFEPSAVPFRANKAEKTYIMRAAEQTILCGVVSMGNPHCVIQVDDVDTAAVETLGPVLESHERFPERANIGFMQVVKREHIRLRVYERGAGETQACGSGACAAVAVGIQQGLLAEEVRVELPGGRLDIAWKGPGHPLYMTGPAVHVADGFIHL

B1: Full-length E. coli RppH (RNA pyrophosphohydrolase) (enzyme, UniProt P0A776 1-176, looked up)
chain: T3 sequence (looked up) with A134R
B2: DapFm (E. coli DapF with Y268A and R36A mutations) (enzyme)
chain: T1 sequence
B3: DapF V19S-F58S (E. coli DapF double mutant) (enzyme)
chain: T1 sequence with V25S, A42R, F64S, A274Y
B4: E. coli DapF (diaminopimelate epimerase) bearing six additional residues (SGSGSG) at the amino terminus (enzyme)
chain: T1 sequence with A42R, A274Y
B5: DapF V19S-L89S (E. coli DapF double mutant) (enzyme)
chain: T1 sequence with V25S, A42R, L95S, A274Y
B6: DapF F58S-L89S (E. coli DapF double mutant) (enzyme)
chain: T1 sequence with A42R, F64S, L95S, A274Y
B7: DapF^V19S,F58S,L89S (E. coli DapF triple mutant) (enzyme)
chain: T1 sequence with V25S, A42R, F64S, L95S, A274Y
B8: ppcpAGU (ssRNA)
RNA: AGU
modifications: 5' triphosphate analog ppcpA (non-natural bridging group, from ppcpA starter nucleotide)

Key:
[1] = biological target: His6-SUMO-DapF (E. coli DapF with uncleaved N-terminal hexahistidine and SUMO tags) (E. coli) (UniProt P0A6K1); assay: BLI
[2] = biological target: T1, DapFm (E. coli DapF with Y268A and R36A …); assay: BLI
[3] = biological target: T2, His6-SUMO-DapF (E. coli DapF with …); assay: cross-linking
[4] = biological target: T1, DapFm (E. coli DapF with Y268A and R36A …)
[5] = biological target: EcRppH(1–158)AA, truncated variant of E. coli RppH (E. coli) (UniProt P0A776); assay: BLI
[6] = biological target: B1; assay: BLI
[7] = biological target: T3, RppH^R134A (E. coli RppH mutant), …; assay: BLI
[8] = biological target: T4, His6-SUMO-tagged E. coli RppH; assay: BLI
[9] = biological target: T5, RppHt;DapFm; assay: X-ray crystallography

Kd [1]: 1900 nM
Molecule: RppH^W130A,R145A (E. coli RppH double mutant) (from UniProt P0A776 1-176) (enzyme)

Molecule: B1
Kd [2]: 7.5 nM | stoichiometry N [3]: 1 RppH per DapF (printed as 2:2) | stoichiometry N [4]: 1 RppH per DapFm (printed as 1:1)

Molecule: B2
Kd [5]: 6 nM

Molecule: B3
fold reduction of the binding affinity against wild-type DapF [6]: 59 fold

Molecule: B4
fold reduction of the binding affinity against wild-type RppH [7]: 2 fold

Molecule: B5
fold reduction of the binding affinity against wild-type DapF [6]: 77 fold

Molecule: B6
fold reduction of the binding affinity against wild-type DapF [6]: 290 fold

Molecule: B7
fold decrease of binding against wild-type DapF [8]: ~5800 fold

Molecule: B8
binding result [9]: binds
